Data reported in publication PMC11362571, “Multistage protective anti-CelTOS monoclonal antibodies with cross-species sterile protection against malaria” (Nature Communications, 2024).
Several values for one entry are separate records, joined by “and”; a condition that tells them apart may be missing. Identical values can stand only once.

How the values were obtained:
[1] = molecular target: T1, P. falciparum CelTOS (cell-traversal protein for ookinetes and sporozoites), 3D7, residues F25-D182 (Plasmodium falciparum 3D7); assay: BLI; mAb immobilised on anti-mouse IgG Fc capture (AMC) biosensors, 25 °C; CelTOS serially diluted in HBS-EP+ buffer as analyte; OctetRed96e; global fit, 1:1 model; each biological replicate the average of three repeats; details: both partners purified
T1 construct: PfCelTOS, P. falciparum 3D7, PF3D7_1216600, residues F25-D182; also called PfCelTOS; source: E. coli BL21(DE3), pET28, purified (nickel resin, Superdex 200 increase)
T1 chain: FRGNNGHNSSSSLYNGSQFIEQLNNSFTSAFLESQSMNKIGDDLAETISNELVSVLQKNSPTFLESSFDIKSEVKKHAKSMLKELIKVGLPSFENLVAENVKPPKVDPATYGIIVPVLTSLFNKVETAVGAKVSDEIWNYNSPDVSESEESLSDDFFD

[2] = molecular target: T2, P. vivax CelTOS (cell-traversal protein for ookinetes and sporozoites), Sal-1, residues L36-D196 (Plasmodium vivax Sal-1); assay: as above; details: both partners purified
T2 construct: PvCelTOS, P. vivax Sal-1, PVX_123510, residues L36-D196; also called PvCelTOS; source: E. coli BL21(DE3), pET28, purified (nickel resin, Superdex 200 increase)
T2 chain: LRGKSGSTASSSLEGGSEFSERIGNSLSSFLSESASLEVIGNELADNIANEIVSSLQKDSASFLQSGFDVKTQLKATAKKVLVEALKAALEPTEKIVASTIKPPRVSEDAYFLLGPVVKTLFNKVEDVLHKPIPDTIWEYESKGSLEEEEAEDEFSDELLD

[3] = molecular target: T3, P. falciparum CelTOS (3D7, PF3D7_1216600, residue F25-D182) (P. falciparum, UniProt Q8I5P1); assay: BLI; mAb immobilised on anti-mouse IgG Fc capture (AMC) biosensors at 25 °C; CelTOS serially diluted in HBS-EP+ buffer; global fit, 1:1 model; details: both partners purified
T3 construct: Cell-traversal protein for ookinetes and sporozoites (CelTOS), P. falciparum 3D7, PF3D7_1216600, residues F25-D182; Only S60-S116 are ordered in PDB 8UKH; also called PfCelTOS; cell-traversal protein for ookinetes and sporozoites; source: E. coli BL21(DE3), pET28, purified (Ni resin, Superdex 200 increase)

[4] = molecular target: T4, P. vivax CelTOS (Sal-1, PVX_123510, residue L36-D196) (P. vivax, UniProt A5JZX5); assay: as above; details: both partners purified
T4 construct: Cell-traversal protein for ookinetes and sporozoites (CelTOS), P. vivax Sal-1, PVX_123510, residues L36-D196; also called PvCelTOS; cell-traversal protein for ookinetes and sporozoites; source: E. coli BL21(DE3), pET28, purified (Ni resin, Superdex 200 increase)

[5] = molecular target: the molecule itself; assay: crystal structure; PvCelTOS with 7g7 Fab at a 1:1 ratio, complex purified by SEC; crystals at 17 °C, 0.1 M sodium acetate pH 4.5, 15% PEG 4000; 3.2 Å
[6] = molecular target: the molecule itself; assay: crystal structure; PfCelTOS with 4h12 Fab at a ratio of 1.5:1, complex purified by SEC; crystals at 18 °C, 0.2 M lithium acetate, 21% PEG 3350; 3.5 Å

B1: anti-CelTOS monoclonal antibody 7g7 (mouse IgG1) (antibody, V domains shown)
VH: EIQLQQSGPELVKPGASVKVSCKASGYSFTDYNMYWVKQSHGKSLEWIGYIDPYNGGTRYNQKFRDKATLTVDKSSSTAFMHLNSLTSEDSAVYYCARGYYYGNPLHFDVWGAGTTVTVSS
VL: QIVLTQSPAIMSASPGEKVTMTCSASSSVSYIHWYQQKSGTSPKRWIYDTSKLASGVPARFSGSGSGTSYSLTISSMEAEDAATYYCQQWISYPATFGAGTKLELK
notes: 7g7 heavy chain variable region; mouse IgG1 heavy chain constant region (IgG1 subclass by isotyping ELISA); 7g7 light chain variable region; light chain constant region; the light chain of the Fab is in PDB 8ULF; IgG1; raised in mice immunised with PvCelTOS; also called 7g7 mAb; 7g7 IgG; source: hybridoma culture, purified (Protein A resin)
[1]
  Kd: 470 nM and 480 nM and 500 nM
  koff: 0.00279 s⁻¹ and 0.00293 s⁻¹ and 0.00281 s⁻¹ and 0.00284 s⁻¹
  kon: 5900 M⁻¹ s⁻¹ and 6000 M⁻¹ s⁻¹ and 5600 M⁻¹ s⁻¹ and 5800 M⁻¹ s⁻¹
[2]
  Kd: 58.5 nM and 39.5 nM and 54.2 nM
  koff: 0.00309 s⁻¹ and 0.00368 s⁻¹ and 0.00227 s⁻¹ and 0.00332 s⁻¹
  kon: 60200 M⁻¹ s⁻¹ and 62300 M⁻¹ s⁻¹ and 57000 M⁻¹ s⁻¹ and 61300 M⁻¹ s⁻¹

B2: monoclonal antibody 7g7 (IgG) (antibody, V domains shown)
VH: EIQLQQSGPELVKPGASVKVSCKASGYSFTDYNMYWVKQSHGKSLEWIGYIDPYNGGTRYNQKFRDKATLTVDKSSSTAFMHLNSLTSEDSAVYYCARGYYYGNPLHFDVWGAGTTVTVSS
VL: QIVLTQSPAIMSASPGEKVTMTCSASSSVSYIHWYQQKSGTSPKRWIYDTSKLASGVPARFSGSGSGTSYSLTISSMEAEDAATYYCQQWISYPATFGAGTKLELK
notes: the Fab part of the heavy chain is in PDB 8ULF; mouse IgG1; the light chain is in PDB 8ULF; IgG1; raised by immunising mice with PvCelTOS; also called 7g7 mAb; source: mouse hybridoma supernatant, purified (protein A); copies: 2 + 2
[3]
  Kd: 480 nM
[4]
  Kd: 50.7 nM

B3: P. vivax CelTOS (Sal-1, PVX_123510, residue L36-D196) (natural protein, UniProt A5JZX5 36-196, looked up)
chain: LRGKSGSTASSSLEGGSEFSERIGNSLSSFLSESASLEVIGNELADNIANEIVSSLQKDSASFLQSGFDVKTQLKATAKKVLVEALKAALEPTEKIVASTIKPPRVSEDAYFLLGPVVKTLFNKVEDVLHKPIPDTIWEYESKGSLEEEEAEDEFSDELLD
notes: Cell-traversal protein for ookinetes and sporozoites (CelTOS), P. vivax Sal-1, PVX_123510, residues L36-D196; also called PvCelTOS; cell-traversal protein for ookinetes and sporozoites; source: E. coli BL21(DE3), pET28, purified (Ni resin, Superdex 200 increase)
[5]
  stoichiometry N: 2

B4: anti-CelTOS monoclonal antibody 4h12 (mouse IgG1) (antibody, V domains shown)
VH: QVQLQQSGPELVKPGASVKISCKASGYALSSSWLNWVKQRPGQGLEWIGRIFPGDGDTNYNGKFKGKATLTADKSSSTAYLQLSSLTSVDSAVYFCARGGTVVFDYWGQGTTLTVSS
VL: DIVMTQSHKFMSTSVGDRVNITCKASQDVGIAVAWYQQRPGQSPKLLIYWASKRHTGVHDRFTGTGSGTDFTLTISTVQSEDLADYFCQQYSNSLTFGAGTTLELS
notes: 4h12 heavy chain variable region; mouse IgG1 heavy chain constant region (IgG1 subclass by isotyping ELISA); 4h12 light chain variable region; light chain constant region; the light chain of the Fab is in PDB 8UKH; IgG1; raised in mice immunised with PfCelTOS; also called 4h12 mAb; 4h12 IgG; source: hybridoma culture, purified (Protein A resin)
[1]
  Kd: 65.9 nM and 68 nM and 62.3 nM
  koff: 0.00569 s⁻¹ and 0.00609 s⁻¹ and 0.00521 s⁻¹ and 0.00566 s⁻¹
  kon: 86300 M⁻¹ s⁻¹ and 89700 M⁻¹ s⁻¹ and 84700 M⁻¹ s⁻¹ and 86900 M⁻¹ s⁻¹
[2]
  Kd: 41600 nM and 57500 nM and 56300 nM
  koff: 0.0411 s⁻¹ and 0.0511 s⁻¹ and 0.0549 s⁻¹ and 0.0491 s⁻¹
  kon: 1100 M⁻¹ s⁻¹ and 900 M⁻¹ s⁻¹ and 1000 M⁻¹ s⁻¹

B5: monoclonal antibody 4h12 (IgG) (antibody, V domains shown)
VH: QVQLQQSGPELVKPGASVKISCKASGYALSSSWLNWVKQRPGQGLEWIGRIFPGDGDTNYNGKFKGKATLTADKSSSTAYLQLSSLTSVDSAVYFCARGGTVVFDYWGQGTTLTVSS
VL: DIVMTQSHKFMSTSVGDRVNITCKASQDVGIAVAWYQQRPGQSPKLLIYWASKRHTGVHDRFTGTGSGTDFTLTISTVQSEDLADYFCQQYSNSLTFGAGTTLELS
notes: the Fab part of the heavy chain is in PDB 8UKH; mouse IgG1; the light chain is in PDB 8UKH; IgG1; raised by immunising mice with PfCelTOS; also called 4h12 mAb; source: mouse hybridoma supernatant, purified (protein A); copies: 2 + 2
[3]
  Kd: 65.4 nM
[4]
  Kd: 51800 nM

B6: P. falciparum CelTOS (3D7, PF3D7_1216600, residue F25-D182) (natural protein, UniProt Q8I5P1 25-182, looked up)
chain: FRGNNGHNSSSSLYNGSQFIEQLNNSFTSAFLESQSMNKIGDDLAETISNELVSVLQKNSPTFLESSFDIKSEVKKHAKSMLKELIKVGLPSFENLVAENVKPPKVDPATYGIIVPVLTSLFNKVETAVGAKVSDEIWNYNSPDVSESEESLSDDFFD
notes: Cell-traversal protein for ookinetes and sporozoites (CelTOS), P. falciparum 3D7, PF3D7_1216600, residues F25-D182; Only S60-S116 are ordered in PDB 8UKH; also called PfCelTOS; cell-traversal protein for ookinetes and sporozoites; source: E. coli BL21(DE3), pET28, purified (Ni resin, Superdex 200 increase)
[6]
  stoichiometry N: 2
